{
  "source": "patent US8329429B2",
  "about": "“Method of enhancing recombinant protein production” (Induce Biologics Inc., priority 2007, dated 2012)",
  "molecules": {"B1": {"name": "rhBMP-7: recombinant human BMP-7, CHO cell produced, obtained from R&D Systems (protein)", "chain": "STGSKQRSQNRSKTPKNQEALRMANVAENSSSDQRQACKKHELYVSFRDLGWQDWIIAPEGYAAYYCEGECAFPLNSYMNATNHAIVQTLVHFINPETVPKPCCAPTQLNAISVLYFDDSSNVILKKYRNMVVRACGCH"}},
  "key": {"CHO-BMP-2 cells": {"system": "CHO-BMP-2 cells", "assay_type": "cell-based, Chinese hamster", "protocol": "Cell viability was assessed at each media collection using a ViCell cell viability analyzer (Beckman) following manufacturer's instructions."}, "CHO-hBMP-7 cells": {"system": "CHO-hBMP-7 cells", "assay": "ELISA for hBMP-7 in conditioned medium from CHO-hBMP-7 cells incubated with 9DR", "assay_type": "cell-based, Chinese hamster", "settings": "24 hours, nutrient control", "protocol": "Cell lines expressing the hBMP-7 transgene were prepared as per the methods described in Example 1.\nStable CHO cell lines expressing wild type BMP-7 cDNA were seeded into single wells of 24 well plates and cultured in the presence of increasing concentrations of the furin inhibitor 9DR. The conditioned medium was collected and aliquots were assayed for the presence of […] by ELISA. The amount of proBMP-7 present in the samples was estimated by western blot. Other aliquots of conditioned media were diluted with fresh medium and added to C2C12 cells to test for in vitro osteoinductive biological activity."}, "C2C12 cells": {"system": "C2C12 cells", "assay": "C2C12 alkaline phosphatase assay of rhBMP after PreScission digestion", "assay_type": "cell-based", "settings": "for ALP activity (U/μg protein) mean ± SD: n=4", "source_text": "Alkaline phosphatase induction in C2C12 cells: The activity of recombinant hBMP-2 protein is quantitated based upon induction of alkaline phosphatase in in vitro cultured C2C12 cells, as has been described (see, e.g., Peel et al. J Craniofacial Surg. 2003; 14:284-291 and Hu et al. Growth Factors 2004; 22:29033).\nC2C12 cells (ATCC accession number CRL-1772, Manassas, Va.) are passaged before confluent and resuspended at 0.5×10^5 cells/ml in MEM supplemented with 15% heat-inactivated fetal bovine serum, antibiotics and 50 μg/ml ascorbic acid. One ml of cell suspension is seeded per well of a 24 well tissue culture plate (BD Falcon, Fisher Scientific Cat #08-772-1). An aliquot of test BMP-2 sample is added and the cultures maintained at 37° C. and 5% CO2. Test BMP-2 samples included conditioned media, purified recombinant hBMP-2 isolated from conditioned media by heparin affinity chromatography, and as a positive control a commercially available purified recombinant hBMP-2 (R&D Systems, Minneapolis, USA). Control cultures (cultured in media without added BMP-2 sample) are cultured for 2 to 7 days. Medium is changed every two days.\nAt harvest cultures are rinsed with Tris buffered saline (20 mM Tris, 137 mM NaCl, pH 7.4) and M-Per lysis buffer (Pierce Biotechnology Inc., Rockford, Ill., catalogue #78501) is added. The cell layer is scraped into Eppendorf tubes and sonicated. The lysate is centrifuged at 5000×g at 5° C. for 10 minutes, and the supernatant assayed for alkaline phosphatase (ALP) by monitoring the hydrolysis of nitrophenol phosphate in alkaline buffer (Sigma-Aldrich, St. Louis Mo., catalog P5899) as described in Peel et al. J Craniofacial Surg. 2003; 14:284-291 or by using the Alkaline Phosphatase detection kit, Fluorescence (Sigma-Aldrich, catalogue #APF) according to manufacturer's instructions. To normalize the ALP activity the cellular protein content in each well is also assayed using the Coomasie (Bradford) Protein Assay (Pierce Biotechnology Inc., catalogue #23200). The normalized ALP activity for each sample is calculated by dividing the ALP activity per well by the protein content per well. An activity score is calculated by dividing the ALP activity for each sample by the mean ALP activity of the control and is compared to the score achieved by the positive BMP control.\nPreparation of test materials: PreScission protease was obtained from Amersham Biosciences (GE Healthcare, Buckinghamshire, U.K) and was prepared according to the manufacturer's instructions. Recombinant hBMP-2 and rhBMP-7 (both CHO cell produced) were obtained from R&D Systems. The rhBMP samples were resuspended in 4 mM HCl to a final concentration of 10 μg/ml. Bovine serum albumin (BSA) was not included so that the only substrate for the protease was BMP. The cleavage buffer was prepared (50 mM Tris-HCl, 150 mM NaCl, 1 mM EDTA, pH 7).\nAssessment of activity: Samples underwent digestion at room temperature for 6 hours. Reactions were stopped by freezing at −20° C. Digestion samples were diluted in alpha MEM+15% FBS and tested for BMP activity using the C2C12 assay described in Example 1."}},
  "data": [
    {"molecule": "N=C(N)NCCC[C@@H](N)C(=O)N[C@H](CCCNC(=N)N)C(=O)N[C@H](CCCNC(=N)N)C(=O)N[C@H](CCCNC(=N)N)C(=O)N[C@H](CCCNC(=N)N)C(=O)N[C@H](CCCNC(=N)N)C(=O)N[C@H](CCCNC(=N)N)C(=O)N[C@H](CCCNC(=N)N)C(=O)N[C@H](CCCNC(=N)N)C(N)=O", "note": "[9DR, nona-D-arginine amide]", "values": [
      {"measurement": "effect on cell viability", "setting": "CHO-BMP-2 cells", "result": "did not affect cell viability"}
    ]},
    {"molecule": "N=C(N)NCCC[C@@H](N)C(=O)O", "note": "[DR, D arginine]", "values": [
      {"measurement": "mature hBMP-7 in medium versus medium only", "setting": "CHO-hBMP-7 cells", "result": "no difference"}
    ]},
    {"molecule": "B1", "values": [
      {"measurement": "ALP activity (U/μg protein) mean ± SD", "setting": "C2C12 cells; group 2: 20 μl rhBMP (10 μg/ml), no protease, no cleavage buffer (unincubated)", "result": "7.1 ± 0.5", "unit": "U/μg protein"},
      {"measurement": "ALP activity (U/μg protein) mean ± SD", "setting": "C2C12 cells; group 3: 20 μl rhBMP + 15 μl PreScission protease + 165 μl cleavage buffer, room temperature 6 hours", "result": "2.9 ± 0.2", "unit": "U/μg protein"},
      {"measurement": "ALP activity (U/μg protein) mean ± SD", "setting": "C2C12 cells; group 4: 20 μl rhBMP + 180 μl cleavage buffer alone, room temperature 6 hours", "result": "4.0 ± 0.3", "unit": "U/μg protein"},
      {"measurement": "activity after PreScission digestion", "setting": "C2C12 cells; room temperature for 6 hours", "result": "remained active"},
      {"measurement": "activity after PreScission digestion compared to control BMP incubated in cleavage buffer alone", "setting": "C2C12 cells; room temperature for 6 hours", "result": "No loss of activity"}
    ]}
  ]
}
